The source of these data is patent US20090215693A1, “METHODS FOR INCREASING HYALURONIC ACID LEVELS AND IMPROVING MOISTURE RETENTION IN TISSUE” (priority 2008, published 2009).

This test deals with Fibroblasts. The experiment in a line: Hyaluronic acid production by cultured fibroblasts (ELISA of culture medium). Type of test: cell-based. The note with it: fibroblast culture; even at the lowest concentrations tested. The procedure: Fibroblasts were seeded into individual wells of a 12-well plate in 1.0 ml of Fibroblast Growth Media (FGM) and incubated overnight at 37±2° C. and 5±1% CO2. On the following day the media was removed via aspiration to eliminate non-adherent cells and replaced with 1.0 ml of fresh FGM. Cells were grown until confluent, with a media change every 48 to 72 hours. Upon reaching confluency the cells were treated for 24 hours with DMEM supplemented with 1.5% FBS to eliminate growth factors from the normal culture media. After this 24-hour wash-out period the cells were treated with the indicated test materials (i.e., milk-derived products containing lactoferrin) at the specified concentrations dissolved in FGM with 1.5% FBS. Dibutyrl cAMP (DBcAMP) at 0.1 mM was used as a positive control. Untreated cells (negative control) received FGM with 1.5% FBS. The cells were incubated for 48 hours and at the end of the incubation period cell culture medium was collected and either stored frozen (−75° C.) or assayed immediately. All testing was done in triplicate.
A series of hyaluronic acid standards from 50 ng/ml to 3,200 ng/ml was prepared. […] After incubation, 50 μl of stop solution was added to each well and the absorbance was measured at 405 nm using a plate reader. Hyaluronic acid production was expressed as ng/ml and results are shown in Table 1 and the graph of FIG. 1.
In general terms: ELISA stands for enzyme-linked immunosorbent assay.

B1: bovine milk-derived lactoferrin: multi-functional protein found in mammalian milk, primarily in the whey fraction (protein, UniProt P24627 20-708, looked up)
Lactotransferrin: APRKNVRWCTISQPEWFKCRRWQWRMKKLGAPSITCVRRAFALECIRAIAEKKADAVTLDGGMVFEAGRDPYKLRPVAAEIYGTKESPQTHYYAVAVVKKGSNFQLDQLQGRKSCHTGLGRSAGWIIPMGILRPYLSWTESLEPLQGAVAKFFSASCVPCIDRQAYPNLCQLCKGEGENQCACSSREPYFGYSGAFKCLQDGAGDVAFVKETTVFENLPEKADRDQYELLCLNNSRAPVDAFKECHLAQVPSHAVVARSVDGKEDLIWKLLSKAQEKFGKNKSRSFQLFGSPPGQRDLLFKDSALGFLRIPSKVDSALYLGSRYLTTLKNLRETAEEVKARYTRVVWCAVGPEEQKKCQQWSQQSGQNVTCATASTTDDCIVLVLKGEADALNLDGGYIYTAGKCGLVPVLAENRKSSKHSSLDCVLRPTEGYLAVAVVKKANEGLTWNSLKDKKSCHTAVDRTAGWNIPMGLIVNQTGSCAFDEFFSQSCAPGADPKSRLCALCAGDDQGLDKCVPNSKEKYYGYTGAFRCLAEDVGDVAFVKNDTVWENTNGESTADWAKNLNREDFRLLCLDGTRKPVTEAQSCHLAVAPNHAVVSRSDRAAHVKQVLLHQQALFGKNGKNCPDKFCLFKSETKNLLFNDNTECLAKLGGRPTYEEYLGTEYVTAIANLKKCSTSPLLEACAFLTR
As to B1, the “hyaluronic acid levels compared with untreated fibroblasts” value was “detectable and significant increase”.
